The results in this text go back to article PMC13480645.

For this assay, the target named is MERS-CoV S2 stem helix peptide (MERS-CoV). In words: BLI. In general terms: Biolayer interferometry detects binding as a change in optical thickness at a sensor tip.

In general, Kd refers to the concentration at which binding is half-saturated. Read a low Kd as higher affinity. One may read the kon as a measure of how fast the partners come together.

Chain of S2P6 (antibody) (VH): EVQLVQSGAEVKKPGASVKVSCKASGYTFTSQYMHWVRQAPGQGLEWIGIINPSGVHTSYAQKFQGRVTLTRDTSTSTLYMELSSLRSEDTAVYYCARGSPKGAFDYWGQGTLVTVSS
Chain of S2P6 (antibody) (VL): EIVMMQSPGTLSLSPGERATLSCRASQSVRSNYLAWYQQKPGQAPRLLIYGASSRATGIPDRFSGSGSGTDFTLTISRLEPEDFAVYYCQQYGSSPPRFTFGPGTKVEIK

As to S2P6 (antibody), the Kd turned out to be 723 pM and the kon is 315000 M⁻¹ s⁻¹.
